{"source": "paper PMC5500849", "about": "“Cobamide-mediated enzymatic reductive dehalogenation via long-range electron transfer” (Nature Communications, 2017)", "proteins": {"B1": {"name": "PceA (PceA–Strep) (Sulfurospirillum multivorans) (protein)", "chain": "AEKEKNAAEIRQQFAMTAGSPIIVNDKLERYAEVRTAFTHPTSFFKPNYKGEVKPWFLSAYDEKVRQIENGENGPKMKAKNVGEARAGRALEAAGWTLDINYGNIYPNRFFMLWSGETMTNTQLWAPVGLDRRPPDTTDPVELTNYVKFAARMAGADLVGVARLNRNWVYSEAVTIPADVPYEQSLHKEIEKPIVFKDVPLPIETDDELIIPNTCENVIVAGIAMNREMMQTAPNSMACATTAFCYSRMCMFDMWLCQFIRYMGYYAIPSCNGVGQSVAFAVEAGLGQASRMGACITPEFGPNVRLTKVFTNMPLVPDKPIDFGVTEFCETCKKCARECPSKAITEGPRTFEGRSIHNQSGKLQWQNDYNKCLGYWPESGGYCGVCVAVCPFTKGNIWIHDGVEWLIDNTRFLDPLMLGMDDALGYGAKRNITEVWDGKINTYGLDADHFRDTVSFRKDRVKKS"}}, "key": {"purified protein [1]": {"substrate": "Oc1ccc(Br)cc1Br", "test": "purified protein", "conditions": "reduced methyl viologen 0.5 mM / Ti(III) citrate 1.4 mM, 100 mM Tris-HCl pH 7.5, 22 °C, no NH4+, kcat at Table 1, kcat includes further reduction to phenol"}, "purified protein [2]": {"substrate": "Oc1ccc(Br)cc1", "test": "purified protein", "conditions": "reduced methyl viologen 0.5 mM / Ti(III) citrate 1.4 mM, 100 mM Tris-HCl pH 7.5, 22 °C, no NH4+, kcat at Table 1"}}, "data": [{"protein": "B1", "values": [{"measurement": "Km", "setting": "purified protein [1]", "result": 95, "unit": "µM"}, {"measurement": "kcat", "setting": "purified protein [1]", "result": 252, "unit": "s⁻¹"}, {"measurement": "Km", "setting": "purified protein [2]", "result": 99, "unit": "µM"}, {"measurement": "kcat", "setting": "purified protein [2]", "result": 809, "unit": "s⁻¹"}]}]}
